The numbers were not newly measured in paper PMC3702509, “Label Free Fragment Screening Using Surface Plasmon Resonance as a Tool for Fragment Finding – Analyzing Parkin, a Difficult CNS Target” (PLoS ONE, 2013), which cites them from elsewhere.

Usually pKd stands for the Kd on a negative log10 scale, so that one unit is a factor of ten.

The series concerns the target UblD (Parkin ubiquitin-like domain) Ubl domain (Homo sapiens) (UniProt O60260).

pKd: −log10 of the molar value.

Sequence of Parkin (ΔUblD) ΔUblD (O60260 77-465, stated change not applied): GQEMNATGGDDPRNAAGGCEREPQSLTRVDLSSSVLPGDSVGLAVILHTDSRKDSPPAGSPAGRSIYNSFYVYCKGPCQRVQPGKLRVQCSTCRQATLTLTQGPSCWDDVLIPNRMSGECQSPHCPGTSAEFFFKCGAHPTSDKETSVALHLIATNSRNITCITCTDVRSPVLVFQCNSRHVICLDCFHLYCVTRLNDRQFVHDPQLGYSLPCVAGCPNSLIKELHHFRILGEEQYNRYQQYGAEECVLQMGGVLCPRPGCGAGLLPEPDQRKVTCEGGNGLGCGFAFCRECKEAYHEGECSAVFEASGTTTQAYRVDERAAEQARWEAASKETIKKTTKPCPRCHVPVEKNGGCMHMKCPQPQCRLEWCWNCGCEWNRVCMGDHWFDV
Sequence of UblD (Parkin ubiquitin-like domain) Ubl domain (Homo sapiens) (O60260 1-76): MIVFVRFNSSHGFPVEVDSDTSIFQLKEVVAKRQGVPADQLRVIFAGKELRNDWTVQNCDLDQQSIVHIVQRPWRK

As to “Parkin (ΔUblD) ΔUblD (from UniProt O60260)”, the pKd is 5.59.
